IntAct's records for PubMed 19726565

B1: Inositol phosphorylceramide synthase regulatory subunit KEI1 (Saccharomyces cerevisiae), Q06346 (parent)
chain: MRSSLLTLPKSFLGFMPLYLAVEIVLGISILNKCSGAYGILALFTGHPLDFMQWIAYLWSVFTLIVFSQGLYLIHKPNLLVFSQICVLYTIDTISTCFFTLWFTTQWFTLEDTANIDGNNALQSNPISTGKLTERGIDISKQSATESYEYTMTILITLVSLIFRFYFNFILASFVQELLHHPKYLVDRDDVEQNLKNKPIWKRLWAKSQKGCYKLCKNLLE
partner: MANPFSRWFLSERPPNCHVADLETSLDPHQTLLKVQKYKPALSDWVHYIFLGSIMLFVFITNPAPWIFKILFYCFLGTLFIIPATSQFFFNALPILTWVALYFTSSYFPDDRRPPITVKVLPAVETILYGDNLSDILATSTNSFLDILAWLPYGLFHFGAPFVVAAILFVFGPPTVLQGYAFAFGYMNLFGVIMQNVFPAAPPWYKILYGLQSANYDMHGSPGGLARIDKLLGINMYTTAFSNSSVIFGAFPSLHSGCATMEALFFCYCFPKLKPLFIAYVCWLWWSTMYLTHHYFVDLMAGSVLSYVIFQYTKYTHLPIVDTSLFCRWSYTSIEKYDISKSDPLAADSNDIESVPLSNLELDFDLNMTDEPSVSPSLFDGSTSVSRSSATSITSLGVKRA

Variants of: B1
Settings: with aur1_yeast AUR1, P36107

Variant | effect of a mutation on the interaction
F103I | disrupting interaction strength
